Source: patent US20020164657A1 (published 2002)

Target: T1, Aβ 1-42
T1 construct: Obtained from Bachem, dissolved in 50% DMSO and used as the aggregated (insoluble) form; also called aggregated Aβ 1-42; beta-amyloid peptide 1-42
Test: co-sedimentation with Aβ 1-42, SDS-PAGE densitometry
Experimental: Samples were centrifuged at 12,000×g in a micro centrifuge for 5 min. The supernatants were removed, and the pellets washed once with 40 mM Tris, pH 7.5, 10 mM MgCI₂, 1 mM DTT and centrifuged again. The pellets were resuspended in 100 μl buffer, electrophoresed on 12% SDS-PAGE next to the corresponding supernatant, and stained with Coomassie Blue R-250.

T1 sequence (peptide, as listed by the source): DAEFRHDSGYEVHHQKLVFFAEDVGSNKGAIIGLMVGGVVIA

- binding result: no binding
B1: N-terminal tau (M1-238S) (other)
chain: MAEPRQEFEVMEDHAGTYGLGDRKDQGGYTMHQDQEGDTDAGLKAEEAGIGDTPSLEDEAAGHVTQARMVSKSKDGTGSDDKKAKGADGKTKIATPRGAAPPGQKGQANATRIPAKTPPAPKTPPSSGEPPKSGDRSGYSSPGSPGTPGSRSRTPSLPTPPTREPKKVAVVRTPPKSPSS
notes: also called N-terminal tau domain (IM-238S)
